Assay results from the supplement of paper PMC12042874.
± gives the uncertainty stated by the source.

Assay: amyloid nucleation score (Sup35N fusion, yeast selection) (log enrichment); library NNK3; higher = more nucleation; inactive = no reads after selection
Summary of the method: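 Growth for 7 days at 30°C on medium lacking adenine and uracil followed a 24-hour induction with 100 μM copper sulfate of psi-negative yeast expressing peptides of 20 random codons fused to Sup35N. Input and output plasmid inserts were sequenced with Illumina, and sequences with under 100 input reads were excluded. Nucleation score is the DiMSum log enrichment of output over input reads, centred on the mode score of non-aggregating sequences.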

Substance	amyloid nucleation score
GDLSS	inactive
SSESDVNLDVMSKYKFGNIH	inactive
LSLISVSLG	inactive
YPPTGMIWIRILVSV	inactive
IGGVAGQRGSIA	inactive
VCLDHHGVGFYVRSSSCSS	inactive
INNTAPPQTYPR	inactive
GTRIFSRDVISSGFQGSICL	inactive
MIVVHEFLKGYVFSYRLYNL	inactive
SMWQQVYSLSTLF	inactive
MMTTGLLGVLTSCNSMT	inactive
RVSRAGMIMGPMLLFNKYFD	inactive
CEGVAHSDMFLRLLLTETGL	-0.792 ± 1.8
NCRLEESGLVTVNCVGYWWD	inactive
GRWMMWFIEFYNGRQESWGN	inactive
GDSCCDRLYLFFGVWCVRAV	inactive
AHLTSVYVKTPSFEINISNK	inactive
FHGYRLVYPSDYPWCLSSVH	inactive
YDIMVVWWFFVCSRSV	inactive
FTFWWDRLQNWKHIGFFGKV	1.06 ± 0.12
YLEKAL	inactive
SVGVGNIHTR	inactive
EYKAPREFPSTNCIHFNLMT	inactive

Substance	amyloid nucleation score
LFMEDVLRFGLLYLI	inactive
YCFVPRIMYMVCQYCVLTND	inactive
QTMKWSIVHGQKTGGSWVDM	inactive
GTEDWPNHGKKTLAINYLCP	inactive
RTSAHGNYFSQLESLRKMML	inactive
RTGEFMRGLMVGDSVKWVF	inactive
FYICYLNPNQQLFVLN	1.27 ± 0.1
LPALEQNVLHLVMVIY	inactive
TLDILLE	inactive
VLLCYNIVKPYNVSC	inactive
LFYMLPIIVFAPVLMAWLSF	inactive
AMMHNIILFKFVLGYVLMSR	inactive
MKSQVHNIKWLPTCS	inactive
VDFYAQ	inactive
QPVICNIRSSRCV	inactive
TMVQECHYARSVSLYYNANA	inactive
LHICTLYREVVVAAQCS	inactive
SPPTGYRASNWRGLGSVDGW	inactive
CEKGLFLFSFSKFTSYPPGM	-0.435 ± 0.55
TSYKKRFCGQYLMLNVNMSW	inactive
RRWQVCVAGQDSEGTVKVML	0.108 ± 0.56
MDRYFQYPMQDMAQGTVRRD	-0.56 ± 1.7
IRSDG	inactive

Substance	amyloid nucleation score
LLFCVLFATPINCISLIMSE	inactive
NSNDRK	inactive
DRFFTSFSVCSPNDDKGLL	inactive
STIDKCLYINIAIYAIFPDF	1.31 ± 0.12
MSTMFVPLSCFSENKRQTLS	inactive
GMFDCMIELYISGPDLGQGS	inactive
RECSNSVVLFLDVTHRVVRT	inactive
SFRFLV	inactive
RSVVRFWFFLINRHVYELSL	inactive
ALMRVSSLCHLSGKVCLTLA	inactive
SAPNYVRSSLFCN	inactive
KIWNCVYVGWNIVVNNIKGL	2.66 ± 0.076
CLVYLV	inactive
LKYSHEHGFFSYYACWCQQL	inactive
SSMVTSLGCVLYKL	inactive
SCYISNFLSGCKLFMNRFL	inactive
RLYRRSCVSSR	inactive
SWMTTRKGGDVALHASLFRM	inactive
GGKSVLLTFFQWLP	0.56 ± 0.2
CLTGRLLKSSVIRWRKYMNV	inactive
TFQRSGT	inactive
VHHLLELEQVHNKDGTF	inactive
RSFHYRIACESNLAVEVHFR	1.74 ± 0.066

Substance	amyloid nucleation score
NFATRDNWYRVTQTLEDWIK	inactive
IYHYIYSASMKLNTHGELMP	inactive
SMGRYDLLPTPDVVSLSYNM	inactive
LLFFLAGVSSHIMYLVYARC	inactive
TVSGLMVFVMHNGYS	1.45 ± 0.084
SWTGCKYIQKYRCRRWCNNF	inactive
YLSVVRGPMNRCSYYKVMTE	inactive
AVRVEVLGLWYHLKCCWCFL	-0.755 ± 1.9
HKQCWYILVNVRLMSRSRRV	0.818 ± 0.13
LLKEFIL	inactive
FLMFKIPDTARELHVNSGLG	inactive
VPGSSNVTCLYEGLSSYNTR	inactive
TSKFPSDLWSNPPEMYALFI	inactive
SNWKGEISIHEGMLGCT	inactive
VGLAVVSLLSNRRNEDELCF	inactive
LLLVWRLKVSGGLDSNRTGV	1.05 ± 0.13
RWVICEFGR	inactive
EDFLNSWKVSYWKNHTMVVW	inactive
PITDNHFG	-0.697 ± 1.4
GVYVWFAALNNPTVEGFLNS	inactive
TISATLVYQ	inactive
CDIRFIYESYVSDNDGVLLH	inactive
SGKSLDDRFSK	inactive

Substance	amyloid nucleation score
IISVIVTVYR	inactive
VRVMNGTRTSCLVR	-0.834 ± 1
INWGWLPCTRTSTIGSRGRS	inactive
LRYWPVCLVQIAFDFTVTGV	1.97 ± 0.062
LRCWYFLNMMMPYPPPSIKW	inactive
SPLSRWLVDNTGPLGGSLSR	inactive
IRRWPWYIMCYVLLQSFLSL	inactive
FTMMCVYMSWQSGSQRTVTI	inactive
RLINVMVCYLLEGCQGLLL	1.67 ± 0.1
INSEWIQSSAMFHPIMGRFR	-0.188 ± 1.5
TKMDETDLLMFAVLTGGLNG	inactive
STSVSYEWPDLGACIGGDFG	inactive
LRWYPDSCYVSV	inactive
YRLRSICSFLGVVSYG	inactive
SLSPDPFEFLLLSLLLRSAV	inactive
TDGRITS	0.492 ± 0.35
DCFFRSVDLADSR	inactive
LGYPCFSKWFVYSRSIGLEG	inactive
NWDRGLTCHMYRFSNWRWGS	inactive
QQFVTFVIFKYTVSVAMGAG	-0.478 ± 0.88
FWRLRWYMRDGFSDYSGGEY	0.719 ± 0.13
AHWSEYDAKFTKRLV	inactive
SNQLSFLYNN	-0.409 ± 0.76

Substance	amyloid nucleation score
DWLMPIFQVNIEMLWLSWLW	inactive
CRLPLQSL	inactive
RRYVDRYEAIWWCFCIRKLF	inactive
EVYEMNSIRMRSSELSME	inactive
CLTVHTVNIIGMNFIVNVAL	2.72 ± 0.085
NISFFTHLVSYRPTVRSSD	1.24 ± 0.14
TNLMLSLE	inactive
FMYMMFERQLPMWDNELLH	-0.251 ± 0.66
DENVRLTL	inactive
HPESCPGLGSLSGEPR	inactive
VEVMSGDEMWCLWLEFPSFE	inactive
LRLSGVMHRTFYCVVSGHGR	inactive
NVLKSRIGRFIMQIWYTNKW	inactive
LASNDFTDVLHWC	inactive
IIRALARFLVNVGV	inactive
VNNKHVVWCSVHGGSSR	inactive
SHSLSVGGFYSPDFRNYTCT	1.98 ± 0.082
FNGEGFSRQG	-0.457 ± 1.8
TGRLVIFTEWRLSAESSRSH	inactive
VKSVLFDGKL	inactive
YSTCDLGLHIGAQQERYGLG	0.253 ± 0.37
YPDNIFFCQSN	inactive
LMNEY	inactive

Substance	amyloid nucleation score
AFYCVSGIDYVS	inactive
RRMLNAVEMSYRVGKFSFCW	inactive
QTYMTLHETVRLWARMLSC	inactive
PFPGRTLKWNLYTSQFFMAG	inactive
REMKWRLELLVGGKYRYHQL	inactive
CYGKLDGMTNDEEGTPVFAN	inactive
LGLILIVLLVRPVFDSKRLD	inactive
IRFAAMFFALLLRRDESSYE	inactive
YSGSCNFVQVSVFKHWSGVY	inactive
VTRISGTETSDVYINI	0.101 ± 0.6
NILRTRSRF	inactive
QYRRRVYDYVGCTRLWKNLW	-0.682 ± 0.93
SFFRMSFC	2.91 ± 0.06
GPWGSNNMQICTYFQNLFIA	1.73 ± 0.092
AMFFYRWRCVGTGSFVMTGV	inactive
LVFVCARQSTIEVRGKQSRM	2.06 ± 0.065
YFSYLCGVRYLYCFKLCSSM	inactive
YLYNRSMRVPLMSRKLFGGD	inactive
QFPSSQN	inactive
PYSLPSP	inactive
KEDKPESTDYNVNT	inactive
